Broadly, the Kd is the equilibrium constant for the complex coming apart.

The target in the assay is T1, recombinant protein comprising the whole extracellular part of IL1RI (UniProt P14778 18-336).
T1 chain: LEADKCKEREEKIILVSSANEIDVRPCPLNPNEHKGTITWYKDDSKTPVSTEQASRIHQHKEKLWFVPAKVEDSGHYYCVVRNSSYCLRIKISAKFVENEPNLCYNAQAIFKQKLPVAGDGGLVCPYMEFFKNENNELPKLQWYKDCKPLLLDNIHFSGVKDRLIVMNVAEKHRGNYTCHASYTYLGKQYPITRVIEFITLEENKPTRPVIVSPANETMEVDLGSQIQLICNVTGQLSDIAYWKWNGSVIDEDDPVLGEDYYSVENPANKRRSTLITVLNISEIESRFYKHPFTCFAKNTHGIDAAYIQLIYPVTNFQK
In words: SPR. On the technique in general: SPR reads the build-up and loss of mass on a sensor chip optically.

Regarding SGRKSSKMQA [Ilantafin peptide (SEQ ID NO:1), SGRKSSKMQA], the Kd worked out at 171 nM.

The record behind these values is patent publication US20140073556A1 (published 2014).
